# Measured values reported in the DeepSol protein solubility set.
# Assay: soluble on expression in E. coli; label from the status in PepcDB or PDB records
row,Sequence,soluble on expression in E. coli
1,MPCDPIGQFAVLECLDYRWYESLDVRLYGSFGLLQLFPELEKAVMRAFARAIPQGDDTPRVIGYYYTIGAESPIAVRKTPGATPHDLGAPNEHVWEKTNYTSYQDCNLWKDLGCDFVLQVYRDFLLTGADDVQFLRDCWDAIVETLDYVKTFDLDGDGIPENSGAPDQTFDDWRLQGVSAYCGGLWLAALAAAIAISDILLQNHQDSATKEHLLYQKSTYETWLTKSLPIYQEKLWNGKYYRLDSESGSDVVMADQLCGQFYANLLELPDIVPSDRAISALQTVYDACFLKFYDGQFGAANGVRPDGSPENPKATHPLEVWTGINFGLAAFLVQMGMKDEGFRLTQAVVEQIYNNGLQFRTPEAITAAGTFRASTYLRPMAIWAIYLMIGLEHHHHHH,not soluble
2,MGSDKIHHHHHHMRIPPLKAIIAFESVARTKSVNRAAEELGLTASAVSHQLSNLESQIGQPLFQRSGRGLVLTPTGERYLTDVTGSLADLSRATERASSRTEVDILRVHSSPSFGLMWLLPRLSSFQEANGDIELNLACSYENVSFSNGFYDIDVRHGYGNWDNLEVRTVRGEFIAPLASPQYLERHPVKAPEDLLAHRLIYSETPLVQWKQWFGRAGVSLAAQKTFDFSFDRSYMSLETAALGLGIALESLMLASVKIREGLLVPVFDATHAVEVGAHHLVYPRQNAELPRVKRFLAWIEREVAGHGRAS,not soluble
3,MSLGSSDLPAHALVGYLHASFANGSGYTRMADVPDSWDVIDLAFGEPTSVTSGDIRFERCPVAECPNVESDAEFKAAIKAKQAAGKKVLISIGGQNGQVQLTSTAARDKFVSSVSAIIDEYGLDGLDIDFEGHSLSLNADDTDFKNPKTPVIVNLVSAVKTLKAKYGDGFVLTMAPETFFVQLGYQYYGTGKWGGQDPRAGAYLPVIHALRDDLTLLHVQDYNSGSIMGLDNQYHSMGGADFHIAMTDMLLTGFPVAGDANNVFPPLRPDQVAIGMPASTQAGNGHVSPAEVTKALNCLTKKTDCGSYATHGTWPDLRGLMTWSINWDRYSNWEFQKNFDAYFGEGHHHHHH,soluble
4,MKYRDLREFLNLLEQQGELVRVKQEIDPYLEMAEIADRTLRKAGPAILFENPKGYQMPVLCNLFGTPKRVALGMGQENTQALRELGKLLAFLKEPEPPKGFKELLGQLPQWKQILNMPSKTRDNAACQQIVIEGDAVNLYDLPIMHCHEEDIAPLITWGLTITQGPHKKRQNLGIYRQQLIAKNKLIMRWLSHRGGALDFQEWKATYPDKPFPVSVAIGADPATILAAVTPIPDTLPEYAFAGLLRGHKTEVIKSISNQLDVPASAEIVLEGYIDVNETALEGPYGDHTGYYNEQEYFPVFTVTHITMRKDAIYHSTYTGRPPDEPAVLGEALNEVFIPILQKQFPEIVDFYLPPEGCSYRLAVVTIKKQYAGHAKRVMMGVWSFLRQFMYTKFVIVCDDDINARNWKDVIWAITTRCDPSRDTTLIENTPIDYLDFASPIAGLGSKMGIDATNKWNGETIREWGKPITKNQQVVQHIDELWDQLGLLEHHHHHH,not soluble
5,KISKISTGIPRVDELLYGGFDGRDNIVVSGNNFSQKRSFIYNFIKSSANSGMKVIIINVDGSSESLLADLARRGTDLENIILLDGFSKNFQEKVPPNAEVIDDPSNVSSVLKQYMLRAQKEKDFIFVFLSATPYLMDFNDQNRKFFVQLVHWNRKNSLLSTYVLDDFVGQTTAEWFAYMMDFSLYFKNDGDYDYMRVLSLKPVRTKDW,soluble
6,MSGSLEIPGLDDGLLPVETGYGLFQGTAKKRVVICNDNDKFRHSGPLPRALCGSFAAIGLLPLPVVETRPAPPPKVAPITPALQGKACGQAVFEGLRNKNAVETVDNLPALRQTARTGKRWKALESLMQETPAIIYKIVPETLWTAARAEGMFEGAAIDLTDGFIHFSTAKQVAETAARHFSGQVDLLLIAVDGAALGDKLVYEPSRGGDLFPHLYAPLPFSAVLWETPLSLDHDGQHQFPEILLEHHHHHH,not soluble
7,MGSDKIHHHHHHMNKVTINPQIQLTYQIEGKGDPIILLHGLDGNLAGFEDLQHQLASSYKVLTYDLRGHGKSSKSESYDLNDHVEDLKILMEKLNIHEAHILGHDLGGVVAKLFTDKYAYRVKSLTTIASKKDDLIHSFTQLLIQYQDDIAGFNKSEAYILLFSKLFRNQEKTMKWYQKQRIYSIKSEDDSAVAIRSLILHKDEPMYLKKRTCVPTLLINGEHDPLIKDKNHFKLEAHFLNVTKKIFEHSGHAPHIEEPEAFMNYYLNFLKSVS,not soluble
8,GPGSMTAVSNAAAVQATSGANGGSAVVTFFTTTYSKPMPEQSFSVPLNVLPDGLNQLVQNVLGVEGQNFDFLYKDEYIGTTLFRFLQRRGISCEELLNIEYTPALQAKEGNLLPHDDWVSSVRAPYRNNAELLLTGSYDHCVRLWDGDSCLALGSFHREAVKEVALHPVAPASSKTGRKRTRLDGDFMFASASKDGSVAAWKLDSTSSHMQLLGSIQAHTDGVDSVAIAPGDGRLVATASWDTTVKVFNWEQMMEGDTVPSKKAPLVTFTDHSRPVLCSRFSAAHGAARLYSAGYDGHIKCLDTEAAQLQSQFKGDHPINRISVKPAGSSPAADLLLSACTDNRARLFDTRQKDVVKTFSGSCQWLYSVVWLWDAQEGDAEHSGGSLFAVASEDATVRVYDLRCTNTALLTLDAMHTDGVLDVTYVGQSIIASGGKDNKTRSFALSKEGLLS,not soluble
9,ISGFYMSIMRDITEKRSMELQLFKSEERFREIFENAMDAIIIWSNDGRIVKANQSACKIFELPMNLLLKRKLCDFLVDSQQKYSITKRKYAKYGEIREELLFQMGNGQFKELEFTSKRTILEN,not soluble
10,MMINRINLTDIRSFVLIARLGNFTKAAETLDVSRSHVSRQISSLEKQMGVTLLIRTTRTLRLTEAGKHFYHQCEQALHTIDQALLSAVDDVEKVQGEIKINCVGGYLGEVFLADIVNTFMQQYPDVSISLDFSSNRVDLIEEEFDIAFRMGSLEDSGFVAKKLLDIEMGTLASPKYLQQYGRPSHPKELQQHHCLTGSVRKWHFQSLVNKEHYDVSIKGNLQCKNGRVLVAGAIAGNGIIRVPLIYCQQELDDKKLVQVFEEWGIPTVDFSAIYHRDRYQPKRIRTFIDFVKQYSDSLFT,not soluble
11,MKKLYIITGPAGVGKSTTCKRLAAQLDNSAYIEGDIINHMVVGGYRPPWESDELLALTWKNITDLTVNFLLAQNDVVLDYIAFPDEAEALAQTVQAKVDDVEIRFIILWTNREELLRRDALRKKDEQMGERCLELVEEFESKGIDERYFYNTSHLQPTNLNDIVKNLKTNPRFIFCMAGDPLEHHHHHH,soluble
12,MSLSVKILFKNATVFPITSRPFKGDVLVSNGKVEKVGENIEDPDAEIVDLTGKFLFPGFVDAHSHIGLFEEGVGYYYSDGNEATDPVTPHVKALDGFNPQDPAIERALAGGVTSVMIVPGSANPVGGQGSVIKFRSIIVEECIVKDPAGLKMAFGENPKRVYGERKQTPSTRMGTAGVIRDYFTKVKNYMKKKELAQKEGKEFTETDLKMEVGEMVLRKKIPARMHAHRADDILTAIRIAEEFGFNLVIEHGTEAYKISKVLAEKKIPVVVGPLLTFRTKLELKDLTMETIAKLLKDGVLIALMCDHPVIPLEFATVQAATAMRYGAKEEDLLKILTVNPAKILGLEDRIGSIEPGKDADLVVWSGHPFDMKSVVERVYIDGVEVFRREGHHHHHH,soluble
13,MSLTDNLVRVVCVSDTHNTKPNLPDGDILIHAGDLTESGTKEELEKQIYWLDSQPHRYKIVIAGNHETFLDRNYHSHHGNERVTMDWKSLIYLENTSAILDLGAGHQLKVFGSPYTPKHGNGAFQYPRTDTTTWEEIPKDTDLLVTHGPPKAHLDLGHLGCRVLRQALWEMESRPLLHVFGHIHGGYGKEEGHHHHHH,soluble
14,GRLDHNVEAAMGDETKYARINANRSVSNDYQDGNGDSVHSSWERWNADLALGWKPTQDSWIELKGGKGNGEAAYAGRTMDGTQFQRESLGLHAEQKNLTDVIKKVEAQVDYSYNDHIMDNYKMRTPPMMPMAMEVTRRTLNARAAITTEWDRLNVISGVDSQRNKHAGNMYMRDANPIPPLDGDLRFESYGAFSEWTYRLNP,not soluble
15,MGSDKIHHHHHHSCEKDPDLSKLDNNFTVYTNYDSKTNFNDFKTYCLPDSILLIGQGMKAEFWKDENAQEIIKQVADEMDTRGYTRVKVIKNANIGLQLSFTRQTTQIIGTGGWYGGGWYNGWWGPGYWGPYWNDWYYPYPVTYSYNTGTLIMEMVNLTDHPEDTSQKVKLPVIWHSYATGLLFENSKYNMQLTLDAVNQAFDQSPYIKKS,not soluble
